From the DeepSol protein solubility set come the findings set out here.

A short description of this data set: soluble on expression in E. coli; label from the status in PepcDB or PDB records.
Take “MSLATKDPTAVERANLLNMAKLSIKGLIESALSFGRTLDSDYPPLQQFFVVMEHCLKHGLKGRKSFLSYNKTIWGPLELVEKLYPEAEEIGASVRDLPGLKTPLGRARAWLRLALMQKKMADYLRCLIIQRELLSEFYEYHALMMEEEGAVIVGLLVGLNVIDANLCVKGEDLDSQVGVIDFSMYLKNEEGHHHHHH”: the “soluble on expression in E. coli” value is “soluble”.

For the sequence “FYDPLVFPSDEFDASISQVNEKINQSLAFIRKSDELLHNVNAG”, the “soluble on expression in E. coli” value was “soluble”.

For the sequence “MGSDKIHHHHHHMAQALYANVAVVNSKEHKDLKIKPINHFRYAAKIQSCPISDIEFFPCSLSHPIMFAKAEDGKIVPLALMGLERETNQFVSSEGVWKEGEYMPAFLRRYPFIMVRDPENTRMVVGLDMDAEGVNRDEGRELFDEKSEASEFAKSAMKFLTDFQEAFDRTQNFLAKMSELELFDDAVFNWEFKGVTSSFGGFMRIDEKKLDELDDETLLALTRSGHYKLIVAHLVSLRRFQRLVDWKMRPAS”, the “soluble on expression in E. coli” value is given as “not soluble”.

As for “MLSEASSVQSPTVSIRRRTCVVCGSSTLNSYVTSFTRVPDKQEQWVTVLANGDAGFEDQLKASLATGRKYICYDHFDRQYFAQRKTDDGFELIRNRNPMAFKNATFIRHVDLRSTSSFVPDDSSEEPIPAKRLKIMSDLKGRGGELDPNSMTFLMKTIFLHVKKTMEEADEARRKHEIKEELD”, the “soluble on expression in E. coli” value is recorded as “not soluble”.

As for “MSLGEIWYGGTIYTMREENEKVDAIYVENGMIVDVGSKKELENRYAAVTLYDLEDKTMIPGLVDSHMHLIGHGERLLRLDLSNCTSYSEVLTLVRKRVEEAPKGSWIIGEGWNENNFTDTKDVHARDLDEISKEHPILLKRVCRHVTWVNSYILQEANITEKAEDPKGGKIGRDSSNMLTGLLYEQGQELIKHVQPEIDEAYLQSALQTAIKDCWQYGLVGGHTEDLNYYGGFRKTHNAFSHVIKEMPFKAHLLVHHEVAQERKEYENEHYIEFGAMKIFSDGSFGGRTALLSEPYEDAKETNGVAIFSREELAELVKKARDLHMPVAIHTIGDLSLEYVIDALELYPPAEGLRDRIIHCQLAREELIERMKNLQAIIDIQPVFVSSDFPSVIEKLGEHRLRYAYAWKTLLEAGLHCNGGSDAPIEQVNPFLGIYSAVTRRSFIDGVCYMPEERLTAYEAVSLFTTGSAYAIGKEEKRGQITKGYEADFTILDRNIFEIEAEEIKEVQAEMTVIDGKVVYRKDAEGHHHHHH”, the “soluble on expression in E. coli” value is recorded as “soluble”.

“MSLKKIILSIILISNYCYASDCFEITGKAYNIDPLILKAIAWNESKCKSGIKSKTNKNGTYDIGIMQINSSHLDLLSKFNISEDDLLNDACINISVAGYILASNIKSRGNTWDAVGAYNAGYFNTPNAVELRRQYAMKIYKTYNKLKNNEQIIDEGHHHHHH”: the “soluble on expression in E. coli” value is “not soluble”.

For “MGSDKIHHHHHHMIDSIRVEGFRGLKELELSSLRRINVIVGRNNSGKSTLLEALSLFLGSSDPGTFGNVLHEILIWRGWYGIQTVDDLFYNGGDSFSISSTGKTLEALNSKHSLEFKLNGEPFYKIDRESIRRLASQAVLLARFSPKENFEFLTPLTFRRFGYAESLYSYAYERKVVKDSIKVLNEAYPEVEGFSPLLKEDNWVLYVETKYGVYPYYLMGEGFKSAMIISFLSSLLRDGVLLIDSAEAFHHPKSLKVMIQTLVRGSEKNNVQVFLTTHSLELLDLMLEMGRDGFVIYMKNVEGRIEVESIEFQRASELRESIGVDLRGF”, the “soluble on expression in E. coli” value was “not soluble”.
